# Measured values published in US20260266833A1 (AXOIYA, published 2026).
# Non-standard residues stand in square brackets, D forms with d. No end group written: not given here. *: point of attachment. Biotin = O=C1N[C@H]2[C@H](CS[C@H]2CCCCC(=O)*)N1; Arg(Me) = CNC(=N)NCCC[C@H](N)C(=O)O; Ahx = NCCCCCC(=O)O
# T1: H3K14
# T1 construct: also called H3K14 peptide (non-modified)
# T1 peptide: {Biotin-Ahx}-TARKSTGGKAPRKQLAT
# T2: H3R17
# T2 construct: also called H3R17 peptide (non-modified)
# T2 peptide: {Biotin-Ahx}-KSTGGKAPRKQLATKAA
# T3: H3R17me1
# T3 construct: also called H3R17me1 peptide
# T3 peptide: {Biotin-Ahx}-KSTGGKAP[Arg(Me)]KQLATKAA
# T4: H3K27me3 peptide (Kme3 (trimethyl-lysine) at the 10th residue (KQLATKAARKme3SAPATGGVK); N-terminus biotin + aminohexanoic acid linker, or FITC at the N-terminus for fluorescence polarization)
# T4 construct: Synthetic peptide (GenScript); One entry is used for the biotinylated and the FITC-labelled form
# T4 peptide: KQLATKAARKSAPATGGVK
# T5: H3K14Ac
# T5 construct: also called H3K14Ac peptide
# T5 peptide: {Biotin-Ahx}-TARKSTGGK(Ac)APRKQLAT
# Tests used:
# H3K14 [1] = molecular target: T1, H3K14; assay: luciferase-fusion assay on immobilized peptide
# Description: (§1) For luciferase-based assays, 384-well white plates (PerkinElmer) were coated for 16 h at 4° C. with 4 μg/ml streptavidin (New England Biolabs, N7021S) in TBS pH 8.5 (50 mM Tris-HCl pH 8.5, 150 mM NaCl). Each well was blocked with 60 μl/well of TBS pH 8.5 containing 0.5% BSA (TB buffer) and incubated at 25° C. for 1 h. Plates were washed four times with 90 μl/well of PBS pH 7.4, 0.05% Tween-20 (PT buffer) and incubated with 25 μl/well of biotinylated histone peptides at 5 μg/ml in TB buffer pH 8.5 for 30 min at 25° C. Plates were washed and incubated with Cbx chromodomain-luciferase fusions diluted to 0.1 nM for Cbx. VD or 100 nM for Cbx.wt in TB buffer, 0.05% Tween-20, 1 mM DTT, 5% glycerol (TBT buffer). Plates were incubated for 1 h at 25° C. with gentle shaking, washed six times and luminescence intensity was measured with a Biotek Synergy 5 plate reader (Biotek) using the ONE-Glo™ EX luciferase assay system reagent (Promega). Following background subtraction of the luminescence signal derived from wells coated with streptavidin, the luminescence intensity was normalized to wells with immobilized H3K9me3 peptide.
# (§2) To enhance detection sensitivity, each chromodomain was expressed as a fusion to the N-terminus of an engineered firefly luciferase and binding was measured by luminescence intensity.
# H4K20 peptide [2] = molecular target: T6, H4K20 peptide (N-terminus biotin + aminohexanoic acid linker); assay: luciferase-fusion assay on immobilized peptide
# Description: as §1, §2
# H4K20me3 [3] = molecular target: T7, H4K20me3 (Kme3 at peptide residue 8 (histone H4 K20); N-terminal biotin and aminohexanoic acid linker); assay: luciferase-fusion assay on immobilized peptide
# T7 construct: also called H4K20Me3 peptide
# Description: as §1, §2
# H3R17 = molecular target: T2, H3R17; assay: luciferase-fusion assay on immobilized peptide
# Description: as §1, §2
# H3R17me1 = molecular target: T3, H3R17me1; assay: luciferase-fusion assay on immobilized peptide
# Description: as §1, §2
# H4K20 peptide [4] = molecular target: T6, H4K20 peptide; assay: luciferase-fusion assay on immobilized peptide, fusion at 100 nM, normalized to H3K9me3
# Description: as §1, §2
# H4K20me3 [5] = molecular target: T7, H4K20me3; assay: as above
# Description: as §1, §2
# H4K20 peptide [6] = molecular target: T6, H4K20 peptide; assay: luciferase-fusion assay on immobilized peptide, fusion at 0.1 nM, normalized to H3K9me3
# Description: as §1, §2
# H4K20me3 [7] = molecular target: T7, H4K20me3; assay: as above
# Description: as §1, §2
# H3K27me3 peptide [8] = molecular target: T4, H3K27me3 peptide; assay: fluorescence polarization, FITC-peptide 0.5 nM
# Description: (§4) Fluorescence polarization (FP) assays were performed in a 20 μl volume at a constant histone peptide concentration of 0.5 nM. Binding measurements were performed in FP buffer (25 mM HEPES pH 7.5, 150 mM NaCl, 1 mM DTT, 0.01% TritonX-100) by mixing in a 384-well black plate (Corning) 0.5 nM FITC-labeled histone peptides with serial dilutions of wild-type Cbx chromodomains ranging from 200-0.2 μM. For affinity determination of Cbx7.V1 and all Cbx. VDs, chromodomains were serially diluted from 50 μM to 50 nM. Samples were incubated for 30 min at 25° C. prior to data acquisition. […] Dissociation constants were determined using Prismv.9.3 (GraphPad Software Inc) with a one-site total binding model.
# FP assays was used to measure the affinities of each wild-type Cbx chromodomain (Cbx.wt) and its Cbx. VD version for the H3K9me3 and H3K27me3 peptides (Table 13).
# H3K14 [9] = molecular target: T1, H3K14; assay: phage ELISA, specificity heatmap
# Description: (§3) Phage ELISA experiments were performed by coating 384-well MAXISORP plates (Thermo Fisher Scientific) with 25 μl/well of 2 μg/ml streptavidin (New England Biolabs, N7021S) in PBS pH 7.4, and incubating them at 4° C. for 16 h. Each well was blocked with 60 μl/well of PBS pH 7.4 containing 0.5% BSA (PB buffer) and incubated at 25° C. for 1 h. Plates were washed four times with 90 μl/well of PBS pH 7.4 containing 0.05% Tween-20 (PT buffer) and incubated with 25 μl/well of biotinylated histone peptides at 2 μg/ml in PBS pH 7.4 for 30 min at 25° C. Plates were incubated with phage stocks previously diluted three-fold in PB buffer containing 0.05% Tween-20 (PBT buffer) at 25° C. for 1 h with gentle agitation. Plates were washed and bound phage was detected using 25 μl/well of an anti-M13-HRP-conjugated antibody (1:3,000 dilution in PT buffer; SinoBiological, 11973-MM05T-H). Following incubation at 25° C. for 30 min with gentle shaking, plates were washed, and binding was assessed by adding 25 μl/well of the 3,3′,5,5′-tetramethylbenzidine (TMB) (Thermo Fisher) chromogenic substrate. Plates were incubated with TMB at 25° C. with gentle shaking for 5-10 min, and the colorimetric reaction was stopped by addition of 25 μl/well of a IM H3PO4 solution. Plates were read spectrophotometrically at 450 nm using a PowerWave XS microplate reader (BioTek).
# H3K14Ac = molecular target: T5, H3K14Ac; assay: phage ELISA, specificity heatmap
# Description: as §3
# H4K20 peptide [10] = molecular target: T6, H4K20 peptide; assay: phage ELISA, specificity heatmap
# Description: as §3
# H4K20me3 [11] = molecular target: T7, H4K20me3; assay: phage ELISA, specificity heatmap
# Description: as §3
# H3K27me3 peptide [12] = molecular target: T4, H3K27me3 peptide; assay: BLI, biotinylated peptide on streptavidin tips, steady state
# Description: BLI experiments were performed on an Octet HTX system (ForteBio) using biosensor tips coated with streptavidin to immobilize biotinylated H3K9me3 and H3K27me3 peptides. Binding analysis was performed by analyzing the association of biosensor-immobilized methylated peptides to Cbx7.V1 variants in solution at 5 or 1 μM. Binding assays were performed at 25° C. in BLI reaction buffer (25 mM HEPES pH 7.0, 150 mM NaCl, 1 mg/ml BSA, 0.01% Tween-20). Dissociation constants (KD) were obtained by fitting the response wavelength shifts in the steady-state regions with the Langmuir binding model.
# H3K27me3 peptide [13] = molecular target: T4, H3K27me3 peptide; assay: fluorescence polarization, FITC-peptide 0.5 nM
# Description: as §4
Binder,binding result (H3K14 [9]),binding result (H3K14Ac),binding result (H4K20 peptide [10]),binding result (H4K20me3 [11]),Kd (H3K27me3 peptide [12]) [nM],further results
"Cbx2.VD chromodomain-luciferase fusion (designed binder, not shown: engineered YY5 firefly luciferase from Photinus pyralis fused to the C-terminus) MSYYHHHHHHGSDYKDDDDKSSGENLYFQGSGGSGEDVFAAECILSKRLRKGKLEYLVKWEGWSSKHNSWEPEENILDPRLLLAFQKKEHEKEVQNR",,,,,,binding result (H3K14 [1]): no binding (tested: 0.1 nM); binding result (H4K20 peptide [2]): no binding (tested: 0.1 nM); binding result (H4K20me3 [3]): no binding (tested: 0.1 nM); binding result (H3R17): no binding (tested: 0.1 nM); binding result (H3R17me1): no binding (tested: 0.1 nM)
"Cbx7.wt chromodomain-luciferase fusion (other, not shown: engineered YY5 firefly luciferase from Photinus pyralis fused to the C-terminus) MSYYHHHHHHGSDYKDDDDKSSGENLYFQGSGGSSAIGEQVFAVESIRKKRVRKGKVEYLVKWKGWPPKYSTWEPEEHILDPRLVMAYEEKEERDRASGYRKRGPK",,,,,,binding result (H4K20 peptide [4]): binds; binding result (H4K20me3 [5]): binds
"Cbx7.VD chromodomain-luciferase fusion (designed binder, not shown: engineered YY5 firefly luciferase from Photinus pyralis fused to the C-terminus) MSYYHHHHHHGSDYKDDDDKSSGENLYFQGSGGSSAIGEDVFAVESIRKKRVRKGKVEYLVKWEGWPPKYSTWEPEEHILDPRLVMAYEEKEERDRASGYRKRGPK",,,,,,binding result (H3K14 [1]): no binding (tested: 0.1 nM); binding result (H3R17): no binding (tested: 0.1 nM); binding result (H3R17me1): no binding (tested: 0.1 nM); binding result (H4K20 peptide [6]): binds; binding result (H4K20me3 [7]): binds
Cbx2.VD chromodomain (tags removed) (designed binder) GEDVFAAECILSKRLRKGKLEYLVKWEGWSSKHNSWEPEENILDPRLLLAFQKKEHEKEVQNR,,,,,,Kd (H3K27me3 peptide [8]): 3000 nM
"Cbx8.VD chromodomain-luciferase fusion (designed binder, not shown: engineered YY5 firefly luciferase from Photinus pyralis fused to the C-terminus) MSYYHHHHHHGSDYKDDDDKSSGENLYFQGSGGSGEDVFAAEALLKRRIRKGRMEYLVKWEGWSQKYSTWEPEENILDARLLAAFEEREREMELYGP",,,,,,binding result (H3K14 [1]): no binding (tested: 0.1 nM); binding result (H4K20 peptide [2]): no binding (tested: 0.1 nM); binding result (H4K20me3 [3]): no binding (tested: 0.1 nM); binding result (H3R17): no binding (tested: 0.1 nM)
phage-displayed Cbx7.V4 (designed binder) SAICDNVFAVESIRKKRVRKGKVEYLVKWEGWPQEYSTWEPEEHILDPRLVMAYEEKEERDRASGYRKRGPK,no binding,no binding,no binding,no binding,,
"Cbx7.V1 back-mutant D8E, His6- and Flag-tagged (designed binder, not shown: small tags and cut ends) SAIGEDIFAVESIRKKRVRKGKVEYLVKWEGWPLEYSTWEPEEHILDPRLVMAYEEKEERDRASGYRKRGPK",,,,,2000,
"Cbx7.V1 back-mutant L37P, His6- and Flag-tagged (designed binder, not shown: small tags and cut ends) SAIGDDIFAVESIRKKRVRKGKVEYLVKWEGWPPEYSTWEPEEHILDPRLVMAYEEKEERDRASGYRKRGPK",,,,,2500,
phage-displayed Cbx7.V5 (designed binder) SAIGHDVFPVESIRKKRVRKGKVEYLVKWRDWPEQYSTWEPEEHILDPRLVMAYEEKEERDRASGYRKRGPK,no binding,no binding,no binding,no binding,,
"Cbx7.V1 back-mutant D9Q, His6- and Flag-tagged (designed binder, not shown: small tags and cut ends) SAIGDQIFAVESIRKKRVRKGKVEYLVKWEGWPLEYSTWEPEEHILDPRLVMAYEEKEERDRASGYRKRGPK",,,,,2000,
"Cbx7.VD chromodomain (tags removed) (designed binder, also called Cbx7 Q9D/K33E) SAIGEDVFAVESIRKKRVRKGKVEYLVKWEGWPPKYSTWEPEEHILDPRLVMAYEEKEERDRASGYRKRGPK",,,,,,Kd (H3K27me3 peptide [13]): 5000 nM; Kd (H3K27me3 peptide [8]): 5000 nM
"Cbx7.V1 back-mutant E38K, His6- and Flag-tagged (designed binder, not shown: small tags and cut ends) SAIGDDIFAVESIRKKRVRKGKVEYLVKWEGWPLKYSTWEPEEHILDPRLVMAYEEKEERDRASGYRKRGPK",,,,,1500,
"Cbx7 K33E chromodomain (tags removed) (designed binder, FP: His6 and Flag tags removed with TEV protease) SAIGEQVFAVESIRKKRVRKGKVEYLVKWEGWPPKYSTWEPEEHILDPRLVMAYEEKEERDRASGYRKRGPK",,,,,,Kd (H3K27me3 peptide [13]): 20000 nM
"Cbx7.V1 back-mutant I10V, His6- and Flag-tagged (designed binder, not shown: small tags and cut ends) SAIGDDVFAVESIRKKRVRKGKVEYLVKWEGWPLEYSTWEPEEHILDPRLVMAYEEKEERDRASGYRKRGPK",,,,,2000,
"Cbx7.V1 chromodomain, His6- and Flag-tagged (designed binder, not shown: small tags and cut ends, BLI form; tags are said to be removed only for FP and ITC) SAIGDDIFAVESIRKKRVRKGKVEYLVKWEGWPLEYSTWEPEEHILDPRLVMAYEEKEERDRASGYRKRGPK",,,,,2000,
phage-displayed Cbx7.V3 (designed binder) SAICEYIFSVESIRKKRVRKGKVEYLVKWEGWPPEYMTWEPEEHILDPRLVMAYEEKEERDRASGYRKRGPK,no binding,no binding,no binding,no binding,,
phage-displayed Cbx7.V1 (designed binder) SAIGDDIFAVESIRKKRVRKGKVEYLVKWEGWPLEYSTWEPEEHILDPRLVMAYEEKEERDRASGYRKRGPK,no binding,no binding,no binding,no binding,,
"Cbx7 Q9D chromodomain (tags removed) (designed binder, FP: His6 and Flag tags removed with TEV protease) SAIGEDVFAVESIRKKRVRKGKVEYLVKWKGWPPKYSTWEPEEHILDPRLVMAYEEKEERDRASGYRKRGPK",,,,,,Kd (H3K27me3 peptide [13]): 100000 nM
phage-displayed Cbx7.V6 (designed binder) SAIFEDVFPVESIRKKRVRKGKVEYLVKWKGWPSEYSTWEPEEHILDPRLVMAYEEKEERDRASGYRKRGPK,no binding,no binding,no binding,no binding,,
phage-displayed Cbx7.V2 (designed binder) SAICDNVYPVESIRKKRVRKGKVEYLVKWKGWPLEYSTWEPEEHILDPRLVMAYEEKEERDRASGYRKRGPK,no binding,no binding,no binding,no binding,,
